This note sets out measurements from EP4803546A1 (Beijing Wisdomab Biotechnology Co., Ltd, dated 2026).

The target in experiment [1] is T1, MIP-P3-His (disulfide trap single-chain trimer of PRAME antigen peptide … and HLA-A24, His tag) (human).
T1 construct: Single polypeptide; His tag added at the C-terminus; also called dtSCT; MIP-P3-His fusion protein
Kind of experiment: SPR, Biacore T200, as in Section 2.3; MIP-P3-His as analyte. (Surface plasmon resonance follows binding to a sensor surface in real time, without labels.)

In experiment [2] the target is T2, CD3 (recombinant, as analyte of Table 4) (human (homo sapiens), UniProt P07766 23-126; P04234 22-105).
T2 construct: That the analyte was a CD3E/CD3D pair is an inference; also called hCD3E; hCD3D
T2 sequence (P07766 23-126, chain 1 of 2): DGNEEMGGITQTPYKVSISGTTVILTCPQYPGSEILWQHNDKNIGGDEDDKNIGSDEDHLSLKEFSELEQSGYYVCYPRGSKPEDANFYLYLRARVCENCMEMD
T2 sequence (P04234 22-105, chain 2 of 2): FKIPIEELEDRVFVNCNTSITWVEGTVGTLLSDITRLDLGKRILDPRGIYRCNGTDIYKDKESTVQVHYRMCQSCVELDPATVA
Kind of experiment: SPR, Biacore T200, as in Section 2.3; CD3 as analyte.

The target of experiment [3] is HLA-A24 complex with Similar Peptide Segment 12 (…, CPVL) on cells (human; human (homo sapiens)). Kind of experiment: cell-based or functional assay.
Experiment [4] addresses HLA-A24 complex with Similar Peptide Segment 16 (…, PLD1) on cells (human; human (homo sapiens)). Kind of experiment: cell-based or functional assay.
Experiment [5] concerns the target HLA-A24/PRAME complex: PRAME301-309 (…) presented by HLA-A24 on cells (human; human (homo sapiens)). Kind of experiment: cell-based or functional assay.
Experiment [6] addresses HLA-A24 complex with Similar Peptide Segment 8 (…, XCR1) on cells (human; human (homo sapiens)). Kind of experiment: cell-based or functional assay.
The target in experiment [7] is HLA-A24 complex with Similar Peptide Segment 11 (…, KIFBP) on cells (human; human (homo sapiens)). Kind of experiment: cell-based or functional assay.
Experiment [8] deals with T1, MIP-P3-His (disulfide trap single-chain …). Kind of experiment: SPR, Biacore T200, as in Section 2.3; MIP-P3-His as analyte. The source holds these as a separate data set.

Like-named read-outs stand apart in the source and are kept apart here.

B1: bispecific antibody 2N83G3×IMCR (bispecific antibody)
chain 1: QVQLVESGGGLVQAGGSLRLSCAASGASLDIYVMGWYRQATGKERDLVAVITGSGNTNYADSVKGRFTISRDDAKNTLYLQMSSLKPEDTAVYYCAGGRPSRYYRDSGTWADFWGQGTQVTVSSGGGGSGGGGSGGGGSQVQLVESGGGLVQAGGSLRLSCAASGASLDIYVMGWYRQATGKERDLVAVITGSGNTNYADSVKGRFTISRDDAKNTLYLQMSSLKPEDTAVYYCAGGRPSRYYRDSGTWADFWGQGTQVTVSSASERKSSVECPPCPAPEFEGGPSVFLFPPKPKDTLMISRTPEVTCVVVDVSQEDPEVQFNWYVDGVEVHNAKTKPREEQYNSTYRVVSVLTVLHQDWLNGKEYKCKVSNKALPASIEKTISKAKGQPREPQVCTLPPSQEEMTKNQVSLSCAVKGFYPSDIAVEWESNGQPENNYKTTPPVLDSDGSFFLVSKLTVDKSRWQEGNVFSCSVMHEALHNHYTQKSLSLSPGK
chain 2: not shown
notes: Arm 1 is 2N83G3-G1m3-FcH1n1 (two tandem N83G3 VHH on the hole Fc); Arm 2 is IMCR-ScFv-G1m3-FcKn1 (anti-CD3 scFv on the knob Fc); also called 2N83G3×IMCR BsAb
In experiment [1], B1 returned an equilibrium dissociation constant (Kd) of 0.0544 nM, a koff of 7.65e-05 s⁻¹ and an association rate constant (kon) of 1.41e+06 M⁻¹ s⁻¹. For the same molecule, in experiment [2], the Kd was determined as 4.57 nM, the koff is 0.000245 s⁻¹ and the association rate constant (kon) was determined as 53600 M⁻¹ s⁻¹.

B2: humanized bispecific antibody 2N83G3-h5×IMCR (bispecific antibody)
chain 1: EVQLVESGGGLVKPGGSLRLSCAASGASLDIYVMGWYRQAPGKGLELVAVITGSGNTNYADSVKGRFTISRDDSKNTLYLQMNSLKTEDTAVYYCAGGRPSRYYRDSGTWADFWGQGTTVTVSSGGGGSGGGGSGGGGSEVQLVESGGGLVKPGGSLRLSCAASGASLDIYVMGWYRQAPGKGLELVAVITGSGNTNYADSVKGRFTISRDDSKNTLYLQMNSLKTEDTAVYYCAGGRPSRYYRDSGTWADFWGQGTTVTVSSASERKSSVECPPCPAPEFEGGPSVFLFPPKPKDTLMISRTPEVTCVVVDVSQEDPEVQFNWYVDGVEVHNAKTKPREEQYNSTYRVVSVLTVLHQDWLNGKEYKCKVSNKALPASIEKTISKAKGQPREPQVCTLPPSQEEMTKNQVSLSCAVKGFYPSDIAVEWESNGQPENNYKTTPPVLDSDGSFFLVSKLTVDKSRWQEGNVFSCSVMHEALHNHYTQKSLSLSPGK
chain 2: not shown
notes: Arm 1 is 2N83G3-h5-G1m3-FcH1n1 (two tandem N83G3-h5 VHH on the hole Fc); Arm 2 is IMCR-scFv-G1m3-FcKn1 (anti-CD3 scFv on the knob Fc); also called 2N83G3-h5×IMCR BsAb
Molecule B2 came in with a Kd in experiment [1] of 0.065 nM. The same molecule displayed an off-rate constant (koff) in experiment [1] of 8.06e-05 s⁻¹. The molecule further registered an on-rate constant (kon) in experiment [1] of 1.24e+06 M⁻¹ s⁻¹. The “EC50 Value (nM) mediating the Activation of Jurkat-Dual Cells” value turned out to be 5.32 nM in experiment [3]; 1.07 nM in experiment [4]; 0.011 nM in experiment [5]; 3.71 nM in experiment [6]; 1.02 nM in experiment [7].

B3: N83G3-h5 humanized single-domain antibody (Fc fusion)
VHH: EVQLVESGGGLVKPGGSLRLSCAASGASLDIYVMGWYRQAPGKGLELVAVITGSGNTNYADSVKGRFTISRDDSKNTLYLQMNSLKTEDTAVYYCAGGRPSRYYRDSGTWADFWGQGTTVTVSS
notes: also called humanized mutant N83G3-h5; humanized molecule N83G3-h5
Turning to B3, in experiment [8], binding was characterised by a dissociation constant (Kd) of 0.0747 nM, the off-rate (koff) amounted to 5.52e-05 s⁻¹ and the on-rate (kon) worked out at 737000 M⁻¹ s⁻¹.

Broadly, the Kd is the constant that tells how readily two partners part at equilibrium. In general, koff refers to the rate constant with which the complex falls apart. Usually kon stands for the second-order rate constant of association.
